# From patent US20060286568A1
# Key:
# eGFP-EAAT4 = assay: cell-based or functional assay
# eGFP-EAAT3 = assay: cell-based or functional assay
"% of diffraction spots not moving (TIRF microscopy, HEK293 cells) (eGFP-EAAT4) [%]","% of diffraction spots not moving (TIRF microscopy, HEK293 cells) (eGFP-EAAT3) [%]","diffraction spots moving at or near the membrane (TIRF microscopy, HEK293 cells) (eGFP-EAAT4) [%]",Substance
67.5,,,myc-tagged mutant β-III spectrin with the 39 bp American SCA5 deletion (SP-Δ39; p.E532_M544del) (from UniProt O15020 2-2390)
94.2,58.7,5,myc-tagged wildtype β-III spectrin (SP-WT) (from UniProt O15020 2-2390)
